From article PMC10471174 come the findings set out here.

In the experiment the target is T1, purified human SAP30 protein (GST removed) (human), O75446.
T1 chain: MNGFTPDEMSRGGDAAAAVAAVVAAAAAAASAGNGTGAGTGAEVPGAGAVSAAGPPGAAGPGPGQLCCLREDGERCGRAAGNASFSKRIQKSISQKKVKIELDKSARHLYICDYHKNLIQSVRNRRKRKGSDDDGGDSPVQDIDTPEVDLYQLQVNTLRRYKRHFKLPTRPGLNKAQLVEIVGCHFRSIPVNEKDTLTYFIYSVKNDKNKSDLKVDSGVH
Kind of experiment: SDS-PAGE under non-reducing conditions; purified SAP30 (GST removed) treated with or without β-mercaptoethanol and boiling; Coomassie staining and immunoblot. The conditions noted are these: remark: other sources report otherwise. A general note: Immunoblotting shows a protein as a band on a membrane.

B1: purified human SAP30 protein (GST removed), O75446 1-220 (natural protein)
chain: MNGFTPDEMSRGGDAAAAVAAVVAAAAAAASAGNGTGAGTGAEVPGAGAVSAAGPPGAAGPGPGQLCCLREDGERCGRAAGNASFSKRIQKSISQKKVKIELDKSARHLYICDYHKNLIQSVRNRRKRKGSDDDGGDSPVQDIDTPEVDLYQLQVNTLRRYKRHFKLPTRPGLNKAQLVEIVGCHFRSIPVNEKDTLTYFIYSVKNDKNKSDLKVDSGVH
In general, stoichiometry N refers to the number of molecules, sites or subunits per partner or assembly. B1 yielded a stoichiometry N of 2.
